Test results from US20260242432A1 (NUVIG THERAPEUTICS, published 2026).

How the values were obtained:
mouse FcRn [1] = target: T1, mouse FcRn (mouse, UniProt Q61559 22-297; P01887 21-119, limits assumed); experiment: SPR, Fc loaded on anti-human Fc biosensors
T1 construct: also called mFcRn; murine FcRn
T1 sequence (looked up) 1: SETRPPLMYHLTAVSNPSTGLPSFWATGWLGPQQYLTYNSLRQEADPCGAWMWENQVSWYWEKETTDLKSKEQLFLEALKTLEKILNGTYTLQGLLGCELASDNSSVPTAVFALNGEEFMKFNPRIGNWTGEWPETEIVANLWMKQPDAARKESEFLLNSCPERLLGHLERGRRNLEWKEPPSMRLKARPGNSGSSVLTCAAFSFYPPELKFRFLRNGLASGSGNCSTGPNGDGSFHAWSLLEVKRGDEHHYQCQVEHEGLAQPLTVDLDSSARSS
T1 sequence (looked up) 2: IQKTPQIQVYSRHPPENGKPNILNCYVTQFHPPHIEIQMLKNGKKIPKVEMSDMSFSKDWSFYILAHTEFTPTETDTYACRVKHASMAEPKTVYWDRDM
Protocol: (§1) Dissociation constants (KDs) are plotted as μM (solid bars) and association constants (KAs) are plotted as Ms⁻¹ (hatched bars). (FIG. 9E and FIG. 9F) Female WT C57BL/6 (FIG. 9E) and humanized homozygous FcRn (Tg32) mice (FIG. 9F) were administered one dose of 50 mg/kg or 100 mg/kg of F241A/B4ST6 Fc or 10 mg/kg of Fc^Abdeg and serum mouse IgG was measured via ELISA out to day 7 post-dose. (FIG. 9G) SIGN-R1^{-/-} and hDC-SIGN⁺ murine bone marrow-derived macrophages (BMDMs) had their Fcγ receptors blocked then were incubated with PBS, F241A/B4ST6 Fc, or Fc^Abdeg and binding was detected by FACS using an anti-human IgG Fc antibody. […] (FIG. 911-9J) Female WT C57BL/6 mice (n=5 per group) and female and male SIGN-R1^{-/-} mice (n=5 per group) were administered arthritogenic K/BxN serum alongside PBS, 1 g/kg IVIG, 50 mg/kg F241A/B4ST6 Fc, or 10 mg/kg Fc^Abdeg in a preventative manner, and joint swelling was clinically scored for 10 days. […] Statistical significance was assessed using an ordinary one-way ANOVA with Tukey's multiple comparisons.
(§2) At the outset, the interactions between WT Fc, F241A/B4ST6 Fc, and Fc^Abdeg were tested with mouse and human FcRn using surface plasmon resonance (SPR). […] C57BL/6 and hFcRn (Tg32) mice were given a single intravenous injection of F241A/B4ST6 Fc or Fc^Abdeg and, following dosing, serum mIgG was determined via ELISA.

human FcRn [2] = target: T2, human FcRn (human, UniProt P55899 24-297; P61769 21-119, limits assumed); experiment: SPR, Fc loaded on anti-human Fc biosensors
T2 construct: also called hFcRn
T2 sequence (P55899 24-297 limits assumed, chain 1 of 2): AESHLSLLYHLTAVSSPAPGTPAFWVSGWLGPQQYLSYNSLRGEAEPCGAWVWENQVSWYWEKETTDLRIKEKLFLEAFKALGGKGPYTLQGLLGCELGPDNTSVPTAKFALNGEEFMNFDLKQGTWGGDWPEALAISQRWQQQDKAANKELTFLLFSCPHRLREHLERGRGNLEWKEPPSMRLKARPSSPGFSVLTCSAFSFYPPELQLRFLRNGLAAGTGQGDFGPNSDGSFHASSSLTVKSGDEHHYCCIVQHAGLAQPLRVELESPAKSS
T2 sequence (P61769 21-119 limits assumed, chain 2 of 2): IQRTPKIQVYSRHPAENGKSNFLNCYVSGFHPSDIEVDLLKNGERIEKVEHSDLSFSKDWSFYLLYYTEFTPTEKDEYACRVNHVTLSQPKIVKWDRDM
Protocol: as §1, §2

mouse FcRn [3] = target: T1, mouse FcRn; experiment: not stated in the sentence (apparently the SPR of Example 7)
mouse FcRn [4] = target: T1, mouse FcRn; experiment: SPR; Fc loaded on anti-human Fc biosensors, mouse FcRn in solution
Protocol: as §1, §2

human FcRn [5] = target: T2, human FcRn; experiment: SPR; Fc loaded on anti-human Fc biosensors, human FcRn in solution
Protocol: as §1, §2

[6] = target: T3, human Dendritic Cell-Specific ICAM-3-Grabbing Non-Integrin (DC-SIGN) on hDC-SIGN^+/SIGN-R1^-/- murine bone … (human, UniProt Q9NNX6 1-404); experiment: flow cytometry on hDC-SIGN^+/SIGN-R1^-/- BMDMs, Fc gamma receptors blocked, detection with anti-hIgG Fc antibody
T3 construct: whole, on cells; also called hCD209
T3 sequence (looked up): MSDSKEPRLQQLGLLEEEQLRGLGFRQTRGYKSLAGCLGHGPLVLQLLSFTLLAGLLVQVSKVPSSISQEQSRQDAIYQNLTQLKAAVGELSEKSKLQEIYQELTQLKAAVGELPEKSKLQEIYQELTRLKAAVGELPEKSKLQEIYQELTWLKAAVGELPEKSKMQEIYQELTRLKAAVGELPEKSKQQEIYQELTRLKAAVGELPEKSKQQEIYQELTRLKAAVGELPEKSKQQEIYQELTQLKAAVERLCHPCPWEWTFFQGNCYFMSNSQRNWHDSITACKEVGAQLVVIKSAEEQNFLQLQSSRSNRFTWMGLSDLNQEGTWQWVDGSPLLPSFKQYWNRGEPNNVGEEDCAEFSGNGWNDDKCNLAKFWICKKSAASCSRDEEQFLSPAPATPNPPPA
Protocol: Both IVIG and sialylated IgG Fc require the murine C-type lectin Specific ICAM3-Grabbing Non-Integrin Related-1 (SIGN-R1) to mediate anti-inflammatory activity in vivo. This requirement can be circumvented by introduction of SIGN-R1 human orthologue, Dendritic Cell-Specific ICAM-3-Grabbing Non-Integrin (DC-SIGN). Therefore, the ability of both F241A/B4ST6 Fc and Fc^Abdeg to bind DC-SIGN was examined via a cell-binding assay. […] Cells were cultured overnight in high glucose DMEM medium supplemented with 1× antibiotic-antimycotic and 1×FBS at 37° C. and 5% CO₂. The next day, supernatants were discarded and cells were detached with enzyme-free dissociation buffer. Suspended cells were collected and centrifuged for 10 minutes at 400 rpm. The pellet was resuspended and washed in binding buffer (1×TBS, […], 2.5% FBS and 0.05% sodium azide). Fc receptors were blocked by adding anti-mouse CD16/32 antibody clone 93. After blocking, cells were washed in binding buffer, after which 100 μg/mL of Fc^Abdeg and F241A/B4ST6 Fc were added to the cells, which were then incubated for 1 hour on ice. […] BMDMs were analyzed by flow cytometry to detect surface-bound IgG. No bound IgG were detected on the SIGN-R1^{-/-} BMDMs incubated with F241A/B4ST6 Fc or Fc^Abdeg (FIG. 9G). However, IgG was detected on hDC-SIGN⁺/SIGN-R1^{-/-} BMDMs treated with F241A/B4ST6 Fc, but not with Fc^Abdeg (FIG. 9G).

B1: Fc^Abdeg polypeptide (efgartigimod), human IgG1 Fc with M252Y/S254T/T256E/H433K/N434F (other)
chain: DKTHTCPPCPAPELLGGPSVFLFPPKPKDTLYITREPEVTCVVVDVSHEDPEVKFNWYVDGVEVHNAKTKPREEQYNSTYRVVSVLTVLHQDWLNGKEYKCKVSNKALPAPIEKTISKAKGQPREPQVYTLPPSRDELTKNQVSLTCLVKGFYPSDIAVEWESNGQPENNYKTTPPVLDSDGSFFLYSKLTVDKSRWQQGNVFSCSVMHEALKFHYTQKSLSLSPG
notes: also called EFG Fc
Mouse FcRn [1]
  fold lower KD than F241A/B4ST6 Fc: 267 fold
Human FcRn [2]
  fold lower KD than F241A/B4ST6 Fc: 39 fold
Mouse FcRn [3]
  fold enhanced affinity compared to human FcRn: 10 fold
Mouse FcRn [4]
  Kd: 0.27 nM
Human FcRn [5]
  Kd: 5.2 nM
[6]
  binding result: no binding (tested: 100 µg/mL)
